Laboratory results from patent US20140050743A1, “BINDING PROTEINS TO INHIBITORS OF COAGULATION FACTORS” (BAYER INTELLECTUAL PROPERTY GMBH, priority 2011, published 2014).

How the values were obtained:
[1] = ELISA-based activity assay of antibody variants without a competition step; assay type: binding; set-up: key: +++: Variants with an average ratio above reference plus 2×SD; +/−: variants with a ratio below reference minus 2×SD; ++: All variants with a performance in between both thresholds; −: Variants with a ratio below 0.5; conditions: Table 10, multiple substitutions within M14-G07, variant to reference ratio (reference 2-fold improved over wt)
Experimental: To determine the activity of the mutated antibody variants on compound from Example 1K an equilibrium or dissociation limited ELISA assay format was used. Briefly, MTP plates (Nunc Maxisorp black, 460518) were coated with 4 μg/ml streptavidin (Calbiochem, 189730) diluted in coating buffer (Candor Bioscience GmbH, 121500) and incubated over night at 4° C. After washing with PBST, plates were blocked with 100% Smart Block (Candor Bioscience GmbH, 113500) in PBST for 1 h at room temperature and the washing step was repeated. Plates were incubated with compound from Example 1K at varying concentrations (0.3-200 nM) for 1 h at 37° C., washed with PBST and antibody fragments were immobilized by adding 25 μl of the crude bacterial cultures for 1 h at room temperature. After washing with PBST a competition step or the immediate detection was performed. […] For the detection of the residually bound Fabs a HRP-coupled anti-lambda antibody (Sigma, A5175) diluted in 10% Smart Block in PBST was added for 1 h at room temperature. After washing 10 μM Amplex Red (Invitrogen, A12222) were added and incubated for 10 to 30 min at room temperature followed by measurement of the fluorescence signal.
Provided in Table 9 are several examples of single and/or double amino acid substitutions introduced into the heavy and/or the light chain of M14-G07 (wt). Performance of the variants was analyzed in quadruples in the ELISA without a competition step and the FXa deinhibition assay (FXa DIA). In the ELISA, averages were calculated and normalized to the respective average expression level. Overall performance of variants was evaluated by comparing the variant to wt ratio from 2-3 independent experiments. Variants with an average ratio above wt plus 2×SD (standard deviation of the ratio) were considered as improved and are marked with “++”, whereas variants with a ratio below wt minus 2×SD were considered as reduced in their binding affinity and are marked with “−”. All variants with a performance in between both thresholds are marked with “+/−”. Variants with average fluorescence counts below the negative control (non-expressing cells) plus 3×SD were considered as non-binding and marked with “−−” with none of the variants fulfilling this criteria. In the FXa deinhibition assay averages were calculated and overall performance of variants was evaluated by comparing the variant to wt ratio from 2-3 independent experiments. Variants with an average ratio above wt plus 2×SD were considered as improved and are marked with “++”, whereas variants with a ratio below wt minus 2×SD were considered as either reduced in their binding affinity or non-binding and are marked with “−−”. All variants with a performance in between both thresholds are marked with “+/−”. Variants not analyzed are marked with “nd” (not determined). CDRs were defined according to Kabat.
Provided in Table 10 are examples of combined amino acid substitutions within M14-G07 antibodies. While not every combination is provided in Table 10, it is contemplated that the anti-rivaroxaban antibody may comprise any combination of modifications provided. Variant performance was analyzed in quadruples in the ELISA without a competition step. Averages were calculated, average background signals determined on a streptavidin coated plate without compound from Example 1K were subtracted if the compound from Example 1K concentration used for coating was below 10 nM and signals were normalized to the respective average expression level. Overall performance of variants was evaluated by comparing the variant to reference ratio from 2-3 independent experiments using a 2-fold improved reference variant as compared to wt. Variants with an average ratio above reference plus 2×SD are marked with “+++”, whereas variants with a ratio below reference minus 2×SD are marked with “+/−”. All variants with a performance in between both thresholds are marked with “++”. […]

[2] = Affinity by surface plasmon resonance (Biacore), immobilized Fab, analyte rivaroxaban; assay type: binding; conditions: Table 6, immobilized Fabs, SPR (Biacore)
Excerpt: “Binding affinity” refers to the strength of the sum total of noncovalent interactions between a single binding site of a molecule and its binding partner. Unless indicated otherwise, as used herein, “binding affinity” refers to intrinsic binding affinity which reflects a 1:1 interaction between members of a binding pair (e.g. an antibody and an antigen). The dissociation constant “KD” is commonly used to describe the affinity between a molecule (such as an antibody) and its binding partner (such as an antigen) i.e. how tightly a ligand binds to a particular protein. Ligand-protein affinities are influenced by non-covalent intermolecular interactions between the two molecules Affinity can be measured by common methods known in the art, including those described herein. In one embodiment, the “KD” or “KD value” according to this invention is measured by using surface plasmon resonance assays using a Biacore T100 instrument (GE Healthcare Biacore, Inc.) according to Example 5. The dissociation equilibrium constant (KD) was calculated based on the ratio of association (kon) and dissociation rated (koff) constants, obtained by fitting sensograms with a first order 1:1 binding model using Biacore Evaluation Software. Other suitable devices are BIACORE(R)-2000, a BIACORE (R)-3000 (BIAcore, Inc., Piscataway, N.J.), or ProteOn XPR36 instrument (Bio-Rad Laboratories, Inc.).
Binding affinities of Fab-fragments were determined by surface plasmon resonance analysis on a Biacore T100 instrument (GE Healthcare Biacore, Inc.). Fab fragments were diluted to a final concentration of 10 μg/ml in 10 mM sodium acetate, pH 4.5, and immobilized on a CM5 chip (GE Healthcare Biacore, Inc.) at levels of 3000-5000RU by amine-coupling chemistry for flow cells 2, 3 and 4, respectively. Flow cell 1 was used as a reference. […] Sensograms were generated after in-line reference cell correction followed by buffer sample subtraction. The dissociation equilibrium constant (KD) was calculated based on the ratio of association and dissociation rated constants, obtained by fitting sensograms with a first order 1:1 binding model using BiaEvaluation Software.

[3] = system: rivaroxaban induced FXa inhibition; experiment: Functional neutralization of rivaroxaban in a biochemical Factor Xa activity assay; conditions: Table 6, 0.05 nM FXa, 0.6 nM rivaroxaban
Experimental: Serial dilutions of test compounds in assay buffer (50 mM HEPES pH 7.8, 250 mM NaCl, 6 mM CaCl2, 0.01% Brij35, 1 mM glutathione, 4 mM EDTA, 0.05% bovine serum albumin) were performed (typical concentrations ranging from 5 μM to 0.0007 μM).
20 μL of the diluted test compounds were placed in 384 well microtiter plates (Greiner, Frickenhausen, Germany), followed by the addition of 10 μL of a 1:400 dilution (250 μM) of the FXa substrate Pefafluor Xa (100 mM in DMSO, Loxo, Dossenheim, Germany) in assay buffer. […] Simultaneously, control reactions without rivaroxaban were started.
During incubation at 32° C., reaction progress curves were monitored using a fluorescence microtiter plate reader (e.g Tecan Ultra Evolution, Tecan Group Ltd., Mannedorf, Switzerland; excitation 360 nm, emission 465 nm).
The dilution of FXa was chosen that in the control reactions the reaction kinetics was linear, and less than 50% of the substrate was consumed (typical final FXa concentration in the assay: 0.05 nM). […] Results are depicted in FIG. 1.

Row | Kd [2] [nM] | EC50 [3] [nM] | Molecule | ELISA [1]
1 | – | – | M14-G07-30: antibody, Vh SEQ ID NO: 185, Vl SEQ ID NO: 186 (antibody, listed as Homo Sapiens, V domains shown) VH: EVQLLESGGGLVQPGGSLRLSCAASGFTFSSYAMSWVRQAPGKGLEWVSGISGSGGSTYYADSVKGRFTISRDNSKNTLYLQMNSLRAEDTAVYYCARQGRTSFYLDVWGQGTLVTVSS VL: QSVLTQPPSASGTPGQRVTISCSGSSRNIGSFYVYWYQQLPGTAPKLLIYDNNQRPSGVPDRFSGSKSGTSASLAISGLRSEDEADYYCVAWDDSLSGHWVFGGGTKLTVL | +++
2 | – | – | M14-G07-33: antibody, Vh SEQ ID NO: 191, Vl SEQ ID NO: 192 (antibody, listed as Homo Sapiens, V domains shown) VH: EVQLLESGGGLVQPGGSLRLSCAASGFRFSSYAMSWVRQAPGKGLEWVGGISGSGGSTYYADSVKGRFTISRDNSKNTLYLQMNSLRAEDTAVYYCARQGRTSFYLDVWGQGTLVTVSS VL: QSVLTQPPSASGTPGQRVTISCSGSSRNIGAFYVYWYQQLPGTAPKLLIYDNNQRPSGVPDRFSGSKSGTSASLAISGLRSEDEADYYCVAWDWSYSGHWVFGGGTKLTVL | +++
3 | – | – | M14-G07-34: antibody, Vh SEQ ID NO: 193, Vl SEQ ID NO: 194 (antibody, listed as Homo Sapiens, V domains shown) VH: EVQLLESGGGLVQPGGSLRLSCAASGFRFSSYAMSWVRQAPGKGLEWVGGISGSGGSTYYADSVKGRFTISRDNSKNTLYLQMNSLRAEDTAVYYCARQGRTSFYLDVWGQGTLVTVSS VL: QSVLTQPPSASGTPGQRVTISCSGSTSNIGSYYVYWYQQLPGTAPKLLIYDNRQRPSGVPDRFSGSKSGTSASLAISGLRSEDEADYYCVAWDDSLSGTWVFGGGTKLTVL | +++
4 | – | – | M14-G07-1: antibody, Vh SEQ ID NO: 127, Vl SEQ ID NO: 128 (antibody, listed as Homo Sapiens, V domains shown) VH: EVQLLESGGGLVQPGGSLRLSCAASGFRFSSYAMSWVRQAPGKGLEWVGGISGSGGSTYYADSVKGRFTISRDNSKNTLYLQMNSLRAEDTAVYYCARQGRTSFYLDVWGQGTLVTVSS VL: QSVLTQPPSASGTPGQRVTISCSGSSRNIGSFYVYWYQQLPGTAPKLLIYDNNQRPSGVPDRFSGSKSGTSASLAISGLRSEDEADYYCVAWDDSWSGTWVFGGGTKLTVL | +++
5 | – | – | M14-G07-2: antibody, Vh SEQ ID NO: 129, Vl SEQ ID NO: 130 (antibody, listed as Homo Sapiens, V domains shown) VH: EVQLLESGGGLVQPGGSLRLSCAASGFTFSSYAMSWVRQAPGKGLEWVGGISGSGGSTYYADSVKGRFTISRDNSKNTLYLQMNSLRAEDTAVYYCARQGRTSFYLDVWGQGTLVTVSS VL: QSVLTQPPSASGTPGQRVTISCCGSSRNIGSYYVYWYQQLPGTAPKLLIYDNNQRPSGVPDRFSGSKSGTSASLAISGLRSEDEADYYCVAWDDSWSGTWVFGGGTKLTVL | +++
6 | – | – | M14-G07-37: antibody, Vh SEQ ID NO: 199, Vl SEQ ID NO: 200 (antibody, listed as Homo Sapiens, V domains shown) VH: EVQLLESGGGLVQPGGSLRLSCAASGFTFSSYAMSWVRQAPGKGLEWVSGISGSGGSTYYADSVKGRFTISRDNSKNTLYLQMNSLRAEDTAVYYCAREGETSFYLDVWGQGTLVTVSS VL: QSVLTQPPSASGTPGQRVTISCSGSSSNIGSYYVYWYQQLPGTAPKLLIYDNNQRPSGVPDRFSGSKSGTSASLAISGLRSEDEADYYCVAWDDSWSGHWVFGGGTKLTVL | +++
7 | – | – | M14-G07-32: antibody, Vh SEQ ID NO: 189, Vl SEQ ID NO: 190 (antibody, listed as Homo Sapiens, V domains shown) VH: EVQLLESGGGLVQPGGSLRLSCAASGFRFSSYAMSWVRQAPGKGLEWVGGISGSGGSTYYADSVKGRFTISRDNSKNTLYLQMNSLRAEDTAVYYCARQGRTSFYLDVWGQGTLVTVSS VL: QSVLTQPPSASGTPGQRVTISCSGSSSNIGAYYVYWYQQLPGTAPKLLIYDNRQRPSGVPDRFSGSKSGTSASLAISGLRSEDEADYYCVAWDDSLSGHWVFGGGTKLTVL | +++
8 | – | – | M14-G07-31: antibody, Vh SEQ ID NO: 187, Vl SEQ ID NO: 188 (antibody, listed as Homo Sapiens, V domains shown) VH: EVQLLESGGGLVQPGGSLRLSCAASGFTFSSYAMSWVRQAPGKGLEWVGGISGSGGSTYYADSVKGRFTISRDNSKNTLYLQMNSLRAEDTAVYYCARQGRTSFYLDVWGQGTLVTVSS VL: QSVLTQPPSASGTPGQRVTISCSGSSSNIGAFYVYWYQQLPGTAPKLLIYDNNQRPSGVPDRFSGSKSGTSASLAISGLRSEDEADYYCVAWDWSLSGTWVFGGGTKLTVL | +++
9 | < 500 | < 1000 | M16-D05: antibody, Vh SEQ ID NO: 213, Vl SEQ ID NO: 214 (antibody, listed as Homo Sapiens, V domains shown) VH: EVQLLESGGGLVQPGGSLRLSCAASGFTFSAYWMAWVRQAPGKGLEWVSSISSSSSYIYYADSVKGRFTISRDNSKNTLYLQMNSLRAEDTAVYYCARVTEGGLDYWGQGTLVTVTS VL: QSVLTQPPSASGTPGQRVTISCSGSSSNIGNNAVNWYQQLPGTAPKLLIYRNNQRPSGVPDRFSGSKSGTSASLAISGLRSEDEADYYCQSYDSSLSGWVFGGGTKLTVL | –
10 | < 500 | < 1000 | M25-E05: antibody, Vh SEQ ID NO: 219, Vl SEQ ID NO: 220 (antibody, listed as Homo Sapiens, V domains shown) VH: EVQLLESGGGLVQPGGSLRLSCAASGFTFSNAWMSWVRQAPGKGLEWVSSIHWNGGYIGYAESVKGRFTISRDNSKNTLYLQMNSLRAEDTAVYYCARVTLDAVDYWGQGTLVTVTS VL: QSVLTQPPSASGTPGQRVTISCSGSSSNIGNNAVNWYQQLPGTAPKLLIYRNNQRPSGVPDRFSGSKSGTSASLAISGLRSEDEADYYCQSYDNRLTAWVFGGGTKLTVL | –
